Data set [1] has as its target PKR (full length) (human, UniProt P19525 1-551). Description: EMSA; 5 mM Mg2+; Kd only in figure inset; […], room temperature 10 min, […]; SEC: 50 mM Tris pH 7.5, 100 mM NaCl, 5 mM MgCl2. The conditions noted are these: protein: recombinant; three-way junction RNA, apical and central stem-loops. For orientation: A gel shift assay detects complexes by their altered migration in electrophoresis.

Data set [2] deals with PKR1-169 (tandem dsRBMs) (human, UniProt P19525 1-169). Put plainly: SEC co-elution, native PAGE; 5 mM Mg2+; 1.1-fold excess RNA; complex also studied by SAXS; […], room temperature 10 min, […]; SEC: 50 mM Tris pH 7.5, 100 mM NaCl, 5 mM MgCl2. Particulars: protein: recombinant; three-way junction RNA, apical and central stem-loops.
Chain of PKR1-169 (tandem dsRBMs) (P19525 1-169): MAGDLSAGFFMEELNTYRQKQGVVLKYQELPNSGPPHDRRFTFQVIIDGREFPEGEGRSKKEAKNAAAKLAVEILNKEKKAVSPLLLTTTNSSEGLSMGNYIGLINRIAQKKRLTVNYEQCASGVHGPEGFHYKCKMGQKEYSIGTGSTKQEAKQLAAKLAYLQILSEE

Chain of PKR (full length) (P19525 whole entry): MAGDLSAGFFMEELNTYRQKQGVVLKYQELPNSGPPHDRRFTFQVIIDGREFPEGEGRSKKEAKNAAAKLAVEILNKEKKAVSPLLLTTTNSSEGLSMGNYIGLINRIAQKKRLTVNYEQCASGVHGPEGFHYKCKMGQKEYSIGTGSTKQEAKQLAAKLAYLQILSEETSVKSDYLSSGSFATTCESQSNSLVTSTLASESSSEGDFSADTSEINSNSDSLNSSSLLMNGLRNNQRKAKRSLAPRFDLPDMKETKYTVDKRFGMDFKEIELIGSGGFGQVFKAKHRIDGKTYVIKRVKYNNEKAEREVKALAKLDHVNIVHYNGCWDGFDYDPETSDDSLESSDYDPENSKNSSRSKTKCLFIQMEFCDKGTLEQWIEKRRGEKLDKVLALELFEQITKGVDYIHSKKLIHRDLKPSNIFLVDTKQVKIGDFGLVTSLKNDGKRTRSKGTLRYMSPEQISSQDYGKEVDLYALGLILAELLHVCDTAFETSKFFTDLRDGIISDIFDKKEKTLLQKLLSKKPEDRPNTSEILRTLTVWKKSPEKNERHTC

B1: VAI dTS (wt RNA) (structured_RNA)
RNA: GGCAAGGGUAUCAUGGCGGACGACCGGGGUUCGAACCCCGGAUCCGGCCGUCCGCCGUGAUCCAUGCGGUUACCGCCCGCGUGUCGAACCCAGGUGUGCC
B1: the binding result in data set [1] and in data set [2] was “binds” throughout.
